For this experiment, the target named is human 4-1BB on Jurkat cells (Promega) (human) (UniProt Q07011). The experiment in a line: cell-based or functional assay.
human 4-1BB on Jurkat cells (Promega) (human), sequence (Q07011 24-255): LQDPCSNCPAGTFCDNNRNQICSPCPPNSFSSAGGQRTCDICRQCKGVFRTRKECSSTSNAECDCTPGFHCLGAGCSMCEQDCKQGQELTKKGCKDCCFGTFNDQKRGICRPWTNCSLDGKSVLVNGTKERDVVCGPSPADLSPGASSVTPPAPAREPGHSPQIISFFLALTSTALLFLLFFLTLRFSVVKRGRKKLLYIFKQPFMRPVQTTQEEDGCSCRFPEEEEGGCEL

As for Urelumab (BMS-663513) (antibody), the EC50 (nM), 4-1BB NFκB luciferase reporter bioassay, CHO-hROR1 100% was determined as 0.235 nM.

The record behind these values is patent US20260015418A1.
